We go through 41 sequences from the nanobody polyreactivity screen of Harvey et al. (2022).

The data set can be described thus: yeast display, Sf9 membrane polyspecificity reagent, FACS + sequencing; frameworks hold sequencing errors. In short, it runs like this: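 After 36–48 hours of galactose induction, yeast (Saccharomyces cerevisiae BJ5465) displaying a synthetic nanobody library were stained at 4 °C for 1 hour with 10% biotinylated, detergent-solubilized Sf9 membrane reagent. Streptavidin microbeads enriched the stained cells before FACS sorting into low and high (top ~1%) gates on anti-HA and streptavidin fluorescence. Each clone's polyreactivity label reflects its gate of origin.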
Consider “QVQLVESGGGLVQAGGSLRLSCDASGSPFEWYGMGWYRQAPGKERELVDAITSGGSTNYADSVKGRFTISRDNAKNTVYLQMNCLKPEVPAVYYCNAEYKPYHYYKAWVYTYDYGYWGQGTQVTVSS”, for which the “polyreactivity (PSR sort gate)” value is reported as “low polyreactivity”. Consider “QVQLVESGGGLVQAGGSLRLSCDASGSTFNKYAMGWYRQAPGKERELVAAITTSGGRTTYADSVKGRFTISRDNAKNTVYVQMNSLKPEDTEVYYCAARYYIHRGYDYDYWGQGTQVSVSS”, for which the “polyreactivity (PSR sort gate)” value is “high polyreactivity”. Under “QVQLVESGGGLVQAGGSLRLSCDASGSTFTFNDMGWYRQAPGKERELVAAITSGGSTTYADSVKGRFTISRDNAKNTVYLQMNSLKPEDTAVYYCAADYVYFYFYGYDSWGQGTQVTVSS” stands “low polyreactivity”; under “QVQLVESGGGLVQAGGSLRLSCDASGSTFYSYTMGWSRQAPGKERELVATISWSGSSTYDADSVKGRFTISRDNAKNTVYLQMNSLTPEDTAVYYSAAVHYDKSAYWWWYNYWGQGTLVTVSS”, “low polyreactivity”; under “QVQLVESGGGLVQAGGSLRLSCDASGSTIIRNAMGWSRQAPGKERELVAAISTSGGRTHYADSVKGRFTISRDNAKNTVYLKMNSLKPEDTAVYYCATRGKGHYYYWGQGTQVTVSS”, “high polyreactivity”. The result for “QVQLVESGGGLVQAGGSLRLSCDASGSTSKTYAMGWYRQAPGKERELVAVISYGGTTYYADSVKGRFTISRDNAKNTVYLQLNSLKPEDTAVYYCAARAWHRRGVPHYYWGQGSQVTVSS” reads “high polyreactivity”; that for “QVQLVESGGGLVQAGGSLRLSCDASGSTSSKYAMGWYRQAPGKEWQLVATISWRTGSTYYADSVKGRFTISRDNAKNTVYLEMNSLKPEETAVYYCNARVAGRRKYDYWGQGTQVTVSS”, “high polyreactivity”; that for “QVQLVESGGGLVQAGGSLRLSCDDSGFIFFDYAMGWYRQAPGKEREFVAAISTRGGSTYYADSVKGLFTISRDNAKNTVYLQMNSLKPEDTSVYYCNARTIRPWGENGYWGQGTQVSVSS”, “high polyreactivity”. Under “QVQLVESGGGLVQAGGSLRLSCGASGFISKFYAMGWYRQAPGKERELVASISRDGSTSYADSVKGRFTMSRDNAKNSVYLQMNSLKPEDTAVYYCAAPSYRTRYYYWGQGTQVTVSS” stands “high polyreactivity”. Consider “QVQLVESGGGLVQAGGSLRLSCGASGFTFSPYAMGWYRQAPGKERELVAVISGGGSTYYADSVKGRFTISRDNAKNTVYLQMNSLKPEDTAGYYCAKRFYRSYYWGQGTQVTVSS”, for which the “polyreactivity (PSR sort gate)” value was “high polyreactivity”. Under “QVQLVESGGGLVQAGGSLRLSCGASGIIFFNNVMGWYRHAPGKERELVAAITFSGSSTYYADSVKGRFTISRDNAKNTVYLQMNSMKPEDTAVYYCAAKYYGVLYTVPGDDYWGQGTLVTVSS” stands “low polyreactivity”.

On to “QVQLVESGGGLVQAGGSLRLSCGASGNIFTRNAMGWSRQAPGKERECVAAITESGASTYYADSVKGRFTISRDNAKNTVYLQMNSLKPEDTAVYYCNARLSRWRRRPYDYWGQGTQVTVSS”, for which the “polyreactivity (PSR sort gate)” value is “high polyreactivity”. The result for “QVQLVESGGGLVQAGGSLRLSCGASGRIFAYYAMGWYRQAPGKERELVADISSGGNTYYADSVKGRFTISRDNAKNTVYLQMNSLKPEDTAVYYCAADIAWYTHDHRIFDYWGQGTQVTVSS” reads “low polyreactivity”; that for “QVQLVESGGGLVQAGGSLRLSCGASGRIFGINAMGWYRQAPGKERELVAAITKSGGTTYYADSVKGRFTISRDNAKNTVYLQMNTLKPEDTAVYYCAAKGSVVYQLRYDYWGQGTQVTVSS”, “high polyreactivity”. For the sequence “QVQLVESGGGLVQAGGSLRLSCGASGRIFYYYVMGWSRQGPGKERELVAVIDWSGGSTYYADSVKGRFTISRDNAKNTVYLQMNSLKPEDTAVYYCAKVWLKFSLAYEDYVYWGQGTQVTVSS”, the “polyreactivity (PSR sort gate)” value is “low polyreactivity”.

Regarding “QVQLVESGGGLVQAGGSLRLSCGASGSIFNKYAIGWYRQAPGKERELVAAISVSGTRTYYADSVKGRFTISRDNAKNTCYLQMNSLKPEDTAVYYCAATRLDSTGSMYYYWGQGTQVTVSS”, the “polyreactivity (PSR sort gate)” value was “high polyreactivity”. The result for “QVQLVESGGGLVQAGGSLRLSCGASGSIFRLNAMGWYRQAPGKERELVARIDSSGSTNYADSVKGRFTISRDNAKNTVYLQMNSLKPEDTAVYYCAAVLVLIVGMDSWGQGTQVTVSS” reads “low polyreactivity”. With “QVQLVESGGGLVQAGGSLRLSCGASGSIFYGYAMGWYRQAPGKERELVASITYSGGSTYYADSVKGRFTISRDNAKNTVYLQMNSLKPEDTTVYYCAVIGYHYSAISPASQTRQGYDYWGQGTQVTVSS”, the “polyreactivity (PSR sort gate)” value was “low polyreactivity”.

Consider “QVQLVESGGGLVQAGGSLRLSCGASGSIFYQNVMGWYRQAPGKERELVAAISSSGDSTYYADSVKGRFTISRDNAKNTVYLQMNSLKPEDTAVYYCAAEPEYVSGPYDYWGQGTQVTVSS”, for which the “polyreactivity (PSR sort gate)” value was “low polyreactivity”. Under “QVQLVESGGGLVQAGGSLRLSCGAYGLTFTYNTMGWYRPAPGKERELVAAITSSGGRTYYADSVKGRFTISRDHAKNTVYFQMNSLKPEDTAVYYCAKTKYYPKRDYYWGQGTLVTVSS” stands “high polyreactivity”; under “QVQLVESGGGLVQAGGSLRLSCHASGYTFYVYALGWYRQPPGKERELVAAIGGGSTNYADSVKGRFTISRDNAKNTVYLQMNSLKPEDTAVYYCAARRYYKFYYWGQGTQVTVSS”, “high polyreactivity”; under “QVQLVESGGGLVQAGGSLRLSCHATGFTFTIYAMGWYRQAPGKERELVATISGRAGRTYYADSVKGRFTISRDIAKNTVYLQMNSLKPEDTAVYYCNAGQWRYPGLYYYWGKGTQVTVSS”, “high polyreactivity”. As for “QVQLVESGGGLVQAGGSLRLSCPASGFIIRLYVMGWYRQAPGKERELVAAISSGGRTYYADSVKGRFTISRDNAKNTVYLQMNSLKPEDTAVYYCAAYVRGWGCDDFWGQGSQVTVSS”, the “polyreactivity (PSR sort gate)” value is “high polyreactivity”.

With “QVQLVESGGGLVQAGGSLRLSCPASGFNFPAYTMGSYRQAPGKERELVAAITSSGGNTYYADSVKGRFTISRDNAKNTVYFQMNSLKPEDTAVYYCATVSVRWPSNDHVRYDYWGQGTQVTVSS”, the “polyreactivity (PSR sort gate)” value is given as “low polyreactivity”. Under “QVQLVESGGGLVQAGGSLRLSCPASGFTFHHYVMGWYRPAPGKEMEFVASIRWRGGSTYYADSVKGRFTISRDNAKTTVYLQMNSLKPEDTAVYYSNADPYVYSSWQYGYWGQGTQVTVSS” stands “high polyreactivity”; under “QVQLVESGGGLVQAGGSLRLSCPASGITFKGYTMGWYRQAPGKERELVATISRGGRTYADSVKGRFTISRDNAKKTFYLQMNSLKPEDTSVYYCAADKYWAQNDYWGQGTQVTVSS”, “low polyreactivity”. Regarding “QVQLVESGGGLVQAGGSLRLSCPASGRIFYPYPKGWYRQAPGKERELVATITRTGSTYYADSVKGRFTITRDNAKNTVYVQMNSLKPEDPAVYYCAVQRSYVGPRQYNYWGQGTQVTVSS”, the “polyreactivity (PSR sort gate)” value was “high polyreactivity”. Under “QVQLVESGGGLVQAGGSLRLSCPASGRTFKWYAMGWYRQAPGKERELVAAISTGGRTHYADSVKGRFTISRDNSKNTVYLQMNSLKPEDTAVYYCNAADDLADPERTENHKRDYWGQGTQVTVSS” stands “high polyreactivity”; under “QVQLVESGGGLVQAGGSLRLSCPASGRTFNWNAMGWYRKAPGKERELVADISIRGGSTNYADSVKGRFTISRDNAKNTVYLQMNSLKPEDTAVYYCAAEYYDSGNDYWGQGTQVTVSS”, “low polyreactivity”; under “QVQLVESGGGLVQAGGSLRLSCPASGRTFWWYAMGWYRQAPGKEREIVAAISQRGTSTYYADSVKGRFTISRDNAKNTVYLQMNSLNPEDTAVYYCAADRPYYPLKYDYWGQGTQVTVSS”, “high polyreactivity”. “QVQLVESGGGLVQAGGSLRLSCPASGRTIRPYAMGWYRQAPGKERELVAAITGSGTSTYYADSVKGRFTISRDNAKNTVYLQMNSLKPEDTAVYYCAVAIGYVYKTYYYWGQGTQVTVSS”: the “polyreactivity (PSR sort gate)” value is “high polyreactivity”. Take “QVQLVESGGGLVQAGGSLRLSCPASGSIFKYYAMGWYRQAPGKDRELVAPITDRGSSTYYADSVKGRFTISRDNAKNTVYLQMNSLKPEDTAVYYCAAVYYAFYRFGYWGQGTQVTVSS”: the “polyreactivity (PSR sort gate)” value is recorded as “high polyreactivity”. Under “QVQLVESGGGLVQAGGSLRLSCPASGSTFLFNAMGWYRQAPGKERELVAAIRSDGSTDYADSVKGRFTISRDNAKTTVYLQMNSLKPEDTAVYYCAAESITGYVSDFDYWGQGTQVTVSS” stands “low polyreactivity”. As to “QVQLVESGGGLVQAGGSLRLSCPASGSTFRYYAMGWYRQAPGKERELVAAISYRGGSTKYADSVKGRFTISRDNAKNTVYLQMNSLKPEDTAVYYCNTAPWWRTSSDYEYWGQGTQVTVSS”, the “polyreactivity (PSR sort gate)” value is on record as “high polyreactivity”. The result for “QVQLVESGGGLVQAGGSLRLSCPASGSTFVLNAMGWYSQAPGKERELVAAITGSGSTNYADSVKGRFTISRDNAKNTVYLQMNRLKPEDTAVYYCATAAVYPIPFGYWGQGTQVTVSS” reads “low polyreactivity”; that for “QVQLVESGGGLVQAGGSLRLSCPASGSTFYYYAMGWYRQAPGKERELVASISDDGSTNYADSVKGRFTISRDNAKNTVYLQMNSLKPEDTAVYYCAAVWWHQFGSAWYQMGYWGQGTQVTVSS”, “low polyreactivity”. The result for “QVQLVESGGGLVQAGGSLRLSCPASGTIFYVNAMGLYRQEPGKETEFVAAITGGASTNFADSVKGRFTSSRDNAKNTVYLQMNSLKPEDTAVYYCAVDPVGHATRVWTYHYDYWGQGTQVTVSS” reads “low polyreactivity”.

For the sequence “QVQLVESGGGLVQAGGSLRLSCPASGTTIVSNAMGWYRQAPGKERDLVAAISSSGGRTSYADSVKGRFTISRDNAKNTVSLQMNSLKPEDTAVYYCAADHPPGDTYEYWGQGTQVSVSS”, the “polyreactivity (PSR sort gate)” value was “low polyreactivity”. Under “QVQLVESGGGLVQAGGSLRLSCPASGYTFYKNAMGWYRQPPGKERELVAAISYSGGRTYYADSVKGRFTISRDNAKNTVYLQMNSLKPEDTAVYYCAKATRVITDDGSYGYWGQGSQVTVSS” stands “high polyreactivity”; under “QVQLVESGGGLVQAGGSLRLSCPASVLILVYYAMGWYRQAPGKERELVAAINPGGSTKYADSVKGRFTISRDNAKNTVYLQMNSLKQEDTEVYYCNADGEGADSDYDYWGQGTKVTVSS”, “low polyreactivity”; under “QVQLVESGGGLVQAGGSLRLSCPAYGYTILPNAMGWYRQAPGKEREFVAAISYSGGRTYYADSVKGRFTISRDNAKNTVYLQMNSLKPEDTAVYYCATELYGYRYDYWGQGTQVTVSS”, “low polyreactivity”.
